Experimental data from the supplement of paper PMC9876800.

Tested on: peptide library, one residue held at a place counted from the S/T acceptor
Assay: relative phosphorylation of the sub-library (ratio to the mean residue at this position); higher = residue favoured
Settings: human
How it was run: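 In 384-well plates, purified recombinant kinases (human or orthologue constructs) were incubated for 90 min under kinase-specific conditions with 50 μM biotinylated degenerate peptide sub-libraries and 50 μM ATP spiked with γ-32P-ATP. Each sub-library fixed a single residue at one position around a central Ser/Thr. Relative sub-library phosphorylation, measured by phosphorimaging and densitometry of streptavidin membrane spots, is given as a ratio to the mean residue at that position.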

DYRK2, construct: Full length (from UniProt Q92630)
relative phosphorylation
Settings	at +1	at +2	at +3	at +4	at -1	at -2	at -3	at -4	at -5
A fixed	0.832	1.06	0.927	0.956	1.27	2.04	0.9	0.971	1.08
D fixed	0.164	1.08	0.82	1.14	0.655	0.308	0.592	0.84	0.894
E fixed	0.214	0.977	0.792	0.8	0.788	0.307	0.529	0.922	0.857
F fixed	0.209	0.977	0.929	1.23	0.7	0.518	0.457	0.843	1.03
G fixed	0.62	0.756	1.59	1.17	1.17	0.984	1.78	1.05	1.16
H fixed	0.227	0.923	0.915	0.967	0.948	0.562	0.796	0.894	1.14
I fixed	0.368	1.26	0.8	0.996	0.702	0.897	0.571	0.843	0.833
K fixed	0.357	0.502	0.548	0.832	1.12	0.495	0.756	0.859	0.859
L fixed	0.307	1.45	1.1	0.987	0.823	0.98	0.635	0.861	0.878
M fixed	0.314	1.48	1.05	1.22	1.16	0.915	0.608	0.969	0.843
N fixed	0.304	1.08	0.838	0.928	0.877	0.781	0.691	0.771	0.846
P fixed	9.47	0.703	2.79	1.16	1.68	2.97	0.988	1.26	0.99
Q fixed	0.466	1.1	0.893	0.992	1.05	0.597	0.735	0.826	0.819
R fixed	1.99	0.629	0.707	0.778	1.5	2.44	5.23	2.46	1.69
V fixed	0.772	1.23	0.682	0.918	0.898	1.28	0.573	0.781	0.833
W fixed	0.193	0.958	0.902	0.984	0.627	0.487	0.571	0.997	1.01
Y fixed	0.195	0.829	0.72	0.932	1.04	0.444	0.588	0.853	1.24
pThr fixed	0.399	1.77	0.745	1.28	0.415	0.56	0.647	1.03	1.03
pTyr fixed	0.476	0.786	0.709	0.928	0.953	0.452	0.79	1.19	1.19
